This is an account of results in patent US20190194358A1 (ARIZONA BOARD OF REGENTS A BODY CORPORATE OF THE STATE OF …, published 2019).

Where two headings read alike, the source gives them in different places. A value given as a limit tells only on which side of the number the result lay.

Experiment [1] concerns the target T1, transferrin (human, UniProt P02787 20-698).
T1 construct: also called TRF; pooled human transferrin (Sigma)
The experiment is described as follows: SPR (Biacore T100), transferrin immobilised, steady-state response. For orientation: In SPR one partner is held on a chip, and binding of the other changes the refractive index at the surface.
Description: Flow rates and contact times are adjusted as necessary to provide the surface concentration of target desired for the intended application, and may vary by target. In general, for evaluating whether binding occurs, it is preferable to immobilize a relatively large quantity of target, and higher flow rates and/or longer contact times may be used. For determining kinetics, it is preferable to limit the amount of target immobilized so as to minimize rebinding and avidity effects, and lower flow rates and/or contact times may be used.
Because the off rates for these polypeptides were very high, KD values were estimated by measuring steady-state response for at least five concentrations in a two-fold dilution series, each concentration tested in duplicate. For each experiment, response data were processed using a reference surface to correct for bulk refractive index changes and any non-specific binding. Data were also double referenced using responses from blank running buffer injections. […] Analytes were injected for 60 s at a flow rate of 30 μl/min. The antigen surfaces were regenerated with 30 s consecutive pulses of NaOH/NaCl (50 mM NaOH in 1M NaCl) and Glycine (10 mM glycine-HCl, pH 2.5).

Experiment [2] has as its target T1, transferrin. The experiment is described as follows: peptide microarray without organic prewash, Alexa 555 transferrin with Alexa 647 E. coli lysate; rank by the score of Example 2.
The target of experiment [3] is T1, transferrin. The experiment is described as follows: peptide microarray with organic prewash, Alexa 555 transferrin with Alexa 647 E. coli lysate; rank by the score of Example 2.
Experiment [4] concerns the target T2, Tumor Necrosis Factor-alpha (UniProt P01375 77-233).
T2 construct: Immobilised on pipette tips or SPR chips (amine coupling or biotin capture); also called TNF-α; TNF-alpha
Put plainly: SPR (Biacore A100), TNF-α captured, equilibrium response over a concentration series.
Protocol: (§1) Point-mutant libraries were prepared in 96-well stock plates From the stock plate, peptides were diluted to 50 μM concentration in Biacore HBS-EP buffer (GE Healthcare, Piscataway, N.J.) containing 1 mg/ml carboxymethyl-dextran (Sigma-Aldrich, St. Louis, Mo.) to reduce non-specific binding to the CM-5 SPR chip surface. TNF-αt was captured on a CM-5 chip surface at different capture levels on spots 1, 2, 4, and 5 across all four flow cells corresponding to a 40-200 RU range of predicted Rₘₐₓ binding responses. Spot 3 contained only immobilized neutravidin and served as a reference spot.
(§2) Purified point-mutant affinities were measured on the Biacore A100 using SPR equilibrium binding response across a series of peptide concentrations on an SPR chip with TNF-α captured as described above.

The target of experiment [5] is T2, Tumor Necrosis Factor-alpha. Put plainly: SPR; reference TNF1 lead peptide.
Protocol: as §1, §2
The target is the same in experiment [6]. The experiment is described as follows: SPR equilibrium binding (Biacore A100), TNF-α captured on the chip.
Experiment [7] has the same target. The experiment is described as follows: SPR-derived binding energies.
For experiment [8] the target is unchanged. The experiment is described as follows: SPR (Biacore A100) point-mutant screen at 50 µM peptide.
Protocol: as §1
Using the prepared 96-well plates and Biacore A100 SPR instrument, four peptides were flowed separately, in parallel, through the four flow cells over all 4 TNF-α spots and the neutravidin reference spot, with a 60 second association phase and 300 second dissociation phase. SPR sensorgrams were recorded for each peptide response with all 4 TNF-α spots and the neutravidin reference spot across the four flow cells on the SPR chip. Surface regeneration was performed after every 12 injections in each flow cell with Biacore Glycine 2.5 regeneration solution (GE Healthcare, Piscataway, N.J.). Point-mutant reference subtracted, peptide molecular weight adjusted, responses at the late binding region of the sensorgram (a few seconds before dissociation) were compared to the response of the TNF1 lead
For experiment [9] the target is unchanged. The experiment is described as follows: SPR (Biacore A100), TNF-α captured, equilibrium response over a concentration series. This is another data set of the same source.
Protocol: as §1, §2
Experiment [10] shares this target. The experiment is described as follows: SPR; reference TNF1 lead peptide. The source holds these as a separate data set.
Protocol: as §1, §2
Experiment [11] shares this target. The experiment is described as follows: SPR; difference to the TNF1 lead peptide.
Protocol: as §1, §2
For the next experiment, the target named is T3, Gal80 (UniProt P04387 1-435, limits assumed).
T3 construct: Cy3/Cy5 labelled on arrays, immobilised for SPR and ELISA
T3 sequence (looked up): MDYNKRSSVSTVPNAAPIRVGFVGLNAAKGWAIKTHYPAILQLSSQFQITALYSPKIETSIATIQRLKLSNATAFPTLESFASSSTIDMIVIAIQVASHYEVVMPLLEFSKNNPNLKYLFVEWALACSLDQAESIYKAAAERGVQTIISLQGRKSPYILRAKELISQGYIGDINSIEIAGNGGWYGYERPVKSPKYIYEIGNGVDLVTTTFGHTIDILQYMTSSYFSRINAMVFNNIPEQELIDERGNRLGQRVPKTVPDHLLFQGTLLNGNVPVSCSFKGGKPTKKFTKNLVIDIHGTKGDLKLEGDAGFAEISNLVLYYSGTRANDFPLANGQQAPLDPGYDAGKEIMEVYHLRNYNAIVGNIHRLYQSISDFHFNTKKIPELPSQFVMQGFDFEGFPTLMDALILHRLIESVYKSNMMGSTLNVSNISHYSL
The experiment is described as follows: SPR, gal80 immobilised on the chip; Kd from on and off rates.

Experiment [12] deals with T1, transferrin. The experiment is described as follows: affinity characterisation of Example 29 (SPR; format for the purified peptides not stated).
Experiment [13] deals with T1, transferrin. Put plainly: reference TRF26 lead peptide.
The target of experiment [14] is T1, transferrin. Put plainly: SPR (Biacore T100), transferrin immobilised (9758 RU), steady state affinity fit.
Description: Affinity plots were generated for each peptide and fit using a steady state affinity model.

T1 sequence (P02787 20-698 limits assumed): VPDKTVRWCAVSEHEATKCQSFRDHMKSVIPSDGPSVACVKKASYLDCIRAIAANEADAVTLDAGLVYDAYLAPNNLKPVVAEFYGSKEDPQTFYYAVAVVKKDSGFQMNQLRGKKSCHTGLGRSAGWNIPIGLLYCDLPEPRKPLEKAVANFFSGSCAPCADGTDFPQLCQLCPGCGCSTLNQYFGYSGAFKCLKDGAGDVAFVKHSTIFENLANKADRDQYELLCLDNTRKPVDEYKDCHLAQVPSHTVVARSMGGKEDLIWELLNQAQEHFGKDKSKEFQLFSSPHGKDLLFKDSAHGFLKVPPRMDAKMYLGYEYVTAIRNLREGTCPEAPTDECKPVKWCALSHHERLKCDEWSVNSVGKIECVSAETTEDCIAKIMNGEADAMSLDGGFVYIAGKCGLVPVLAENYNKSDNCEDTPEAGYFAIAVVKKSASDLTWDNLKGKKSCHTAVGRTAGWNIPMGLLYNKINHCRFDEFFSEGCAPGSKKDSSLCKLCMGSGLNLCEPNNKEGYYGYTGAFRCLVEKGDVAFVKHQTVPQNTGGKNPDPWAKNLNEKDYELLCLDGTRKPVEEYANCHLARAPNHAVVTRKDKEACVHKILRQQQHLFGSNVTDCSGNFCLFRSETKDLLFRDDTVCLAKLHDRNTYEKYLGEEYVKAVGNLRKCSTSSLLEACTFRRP
T2 sequence (P01375 77-233 limits assumed): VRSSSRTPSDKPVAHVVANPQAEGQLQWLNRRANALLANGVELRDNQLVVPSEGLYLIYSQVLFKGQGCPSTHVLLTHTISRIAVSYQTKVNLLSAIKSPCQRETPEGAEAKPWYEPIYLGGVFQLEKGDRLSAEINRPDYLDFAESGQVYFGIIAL

B1: TRF23 (peptide)
peptide: FRGWAHIFFGPHVIYRGGSC
notes: 20-mer ending GSC
For orientation: Kd means the concentration at which binding is half-saturated. For the molecule B1, the Kd with transferrin [1] was approximately 50 µM. In the experiment with transferrin [2], this molecule had a Rank - non-prewash of 2720 rank. In addition, the Rank -- prewash with transferrin [3] was determined as 2090 rank.

B2: TNF1 D4S+P5Y+M7K triple mutant (peptide)
peptide: FERSYLKMPWSFLQSRQGSC
As for B2, in experiment [4], binding was put at a Kd of 14 µM and the “Observed Binding ΔG” value is -6.63 kcal/mol. Besides, the “Kd Fold-Change Relative to Lead” value in experiment [5] stood at 11 fold.

B3: TNF1 D4S+P5Y+S11K triple mutant (peptide)
peptide: FERSYLMMPWKFLQSRQGSC
notes: also called D4S + P5Y + S1IK (so in the source)
Regarding B3, in experiment [6], the “Fold Change (Ka mutant / Ka TNF1)” value turned out to be 23 fold. In [4], the Kd came to 7 µM and the “Observed Binding ΔG” value is -7.03 kcal/mol. In experiment [7], the “difference in observed binding energy relative to P5Y+S11K” value was -0.72 kcal/mol. Besides, the “Kd Fold-Change Relative to Lead” value in [5] was determined as 23 fold.

B4: TNF1 D4Y point-mutant (peptide)
peptide: FERYPLMMPWSFLQSRQGSC
As for B4, the “fold enhancement in SPR binding response relative to TNF1” value in experiment [8] is not below 15 fold. In experiment [9], the “Binding ΔG” value was -5.95 kcal/mol and the Kd stood at 44 µM. The “Kd Fold-Change Relative to Lead” value in experiment [10] turned out to be 3.6 fold. For the same molecule, the “Component Binding ΔG Contribution” value in [11] is -0.74 kcal/mol.

B5: TNF1 S11K point-mutant (peptide)
peptide: FERDPLMMPWKFLQSRQGSC
Regarding B5, the “fold enhancement in SPR binding response relative to TNF1” value in experiment [8] is not below 15 fold. In experiment [9], the “Binding ΔG” value was -6.03 kcal/mol and the dissociation constant (Kd) stood at 40 µM. For the same molecule, the “Kd Fold-Change Relative to Lead” value in [10] came to 3.9 fold. The “Component Binding ΔG Contribution” value in experiment [11] was -0.82 kcal/mol.

B6: TNF1 P5Y point-mutant (peptide)
peptide: FERDYLMMPWSFLQSRQGSC
Regarding B6, the “fold enhancement in SPR binding response relative to TNF1” value in [8] is not below 15 fold. In [9], the “Binding ΔG” value is -5.79 kcal/mol and the Kd came to 58 µM. Moreover, in experiment [10], the “Kd Fold-Change Relative to Lead” value is 2.7 fold. Besides, the “Component Binding ΔG Contribution” value in [11] was -0.58 kcal/mol.

B7: TNF1 P5Y+M7K double mutant (peptide)
peptide: FERDYLKMPWSFLQSRQGSC
Consider B7, for which, in [4], the Kd is 27 µM and the “Observed Binding ΔG” value is -6.24 kcal/mol. Moreover, the “Kd Fold-Change Relative to Lead” value in [5] is 5.8 fold.

B8: TNF1 M7K point-mutant (peptide)
peptide: FERDPLKMPWSFLQSRQGSC
Turning to B8, the “fold enhancement in SPR binding response relative to TNF1” value in [8] is not below 15 fold. Moreover, in experiment [9], the “Binding ΔG” value is -5.93 kcal/mol and binding was characterised by a dissociation constant (Kd) of 57 µM. For the same molecule, the “Kd Fold-Change Relative to Lead” value in experiment [10] is 2.8 fold. For the same molecule, in experiment [11], the “Component Binding ΔG Contribution” value is -0.72 kcal/mol.

B9: TNF1 P5Y+S11K double mutant (peptide)
peptide: FERDYLMMPWKFLQSRQGSC
As to B9, in experiment [4], the Kd came out at 24 µM and the “Observed Binding ΔG” value was -6.63 kcal/mol. Moreover, in experiment [5], the “Kd Fold-Change Relative to Lead” value is 6.6 fold.

B10: TNF1 D4Y+M7K double mutant (peptide)
peptide: FERYPLKMPWSFLQSRQGSC
On to B10, for which, in experiment [4], the Kd worked out at 17 µM and the “Observed Binding ΔG” value is -6.54 kcal/mol. Also, the “Kd Fold-Change Relative to Lead” value in experiment [5] is 9.4 fold.

B11: BP2 on dsDNA (peptide)
affinity element BP2: EGEWTEGKLSLRGSC
modifications: C-terminal Cys joined through SMCC to the DNA linker
notes: also called BP2 alone conjugated to the double-stranded DNA linker
In the experiment with Gal80, B11 registered a Kd of 0.982 µM.

B12: BP1 on dsDNA (peptide)
affinity element BP1: GTEKGTSGWLKTGSC
modifications: C-terminal Cys joined through SMCC to the DNA linker
notes: also called BP1 alone conjugated to the double-stranded DNA linker
In the experiment with Gal80, B12 showed a Kd of 0.482 µM.

B13: TRF22 (peptide)
peptide: HAYKGPGDMRRFNHSGMGSC
notes: 20-mer ending GSC
The molecule B13 had a Rank - non-prewash in the experiment with transferrin [2] of 711 rank. For the same molecule, in the experiment with transferrin [3], the Rank -- prewash amounted to 61 rank.

B14: TRF21 (peptide)
peptide: QYHHFMNLKRQGRAQAYGSC
notes: 20-mer ending GSC
With B14, in the experiment with transferrin [1], the dissociation constant Kd is approximately 60 µM. Also, in the experiment with transferrin [2], the Rank - non-prewash came to 84 rank. The same molecule returned a Rank -- prewash in the experiment with transferrin [3] of 5 rank.

B15: TRF28 (peptide)
peptide: RFQLTQHYAQFWGHYTWGSC
notes: 20-mer ending GSC
Turning to B15, in the experiment with transferrin [2], the Rank - non-prewash was 601 rank. This molecule also yielded a Rank -- prewash in the experiment with transferrin [3] of 712 rank.

B16: TRF25 (peptide)
peptide: APYAPQQIHYWSTLGFKGSC
notes: 20-mer ending GSC
For B16, the Kd in the experiment with transferrin [1] was approximately 60 µM. Besides, in the experiment with transferrin [2], the Rank - non-prewash was 736 rank. In addition, in the experiment with transferrin [3], the Rank -- prewash was determined as 603 rank.

B17: TRF20 (peptide)
peptide: GQTQFAMHRFQQWYKIKGSC
notes: 20-mer ending GSC
With B17, the Rank - non-prewash with transferrin [2] stood at 18 rank. Besides, in the experiment with transferrin [3], the Rank -- prewash stood at 289 rank.

B18: TRF19 (peptide)
peptide: KEDNPGYSSEQDYNKLDGSC
notes: 20-mer ending GSC; on arrays attached by the C-terminal Cys
In the experiment with transferrin [1], B18 registered a Kd of approximately 150 µM. This molecule also came in with a Rank - non-prewash with transferrin [2] of 5010 rank. Moreover, in the experiment with transferrin [3], the Rank -- prewash stood at 9600 rank.

B19: TRF27 (peptide)
peptide: LDPLFNTSIMVNWHRWMGSC
B19: the Rank - non-prewash with transferrin [2] was 1290 rank. In the experiment with transferrin [3], this molecule had a Rank -- prewash of 3320 rank.

B20: TRF26 (peptide)
peptide: AHKVVPQRQIRHAYNRYGSC
notes: 20-mer ending GSC; also called TRF26 Lead Peptide
On to B20, for which the Kd in the experiment with transferrin [1] is approximately 100 µM; with transferrin [12], 85 µM. Also, the “Binding ΔG” value in the experiment with transferrin [12] was -5.56 kcal/mol. Also, in the experiment with transferrin [2], the Rank - non-prewash stood at 596 rank. This molecule displayed a Rank -- prewash with transferrin [3] of 436 rank.

B21: TRF26 P6Y point-mutant (peptide)
peptide: AHKVVYQRQIRHAYNRYGSC
As to B21, in the experiment with transferrin [12], the “Binding ΔG” value was -6.93 kcal/mol and binding was put at a Kd of 8.6 µM. In the experiment with transferrin [13], the “Kd Fold-Change Relative to Lead” value amounted to 10 fold.

B22: TBPL005 (peptide)
peptide: GHKVVPQRQIRHAYNRYGSC
notes: Clone from mRNA display on a doped TRF26 library; synthesised and HPLC purified
For the molecule B22, binding with transferrin [14] was characterised by a dissociation constant (Kd) of 150 µM.

B23: TBPL025 (peptide)
peptide: GHKVVPQRQMRHAYNRNGSC
notes: Clone from mRNA display on a doped TRF26 library
Molecule B23 had a dissociation constant Kd with transferrin [14] of 150 µM.

B24: TRF26 H12F point-mutant (peptide)
peptide: AHKVVPQRQIRFAYNRYGSC
B24: in the experiment with transferrin [12], the “Binding ΔG” value is -6.85 kcal/mol and the Kd amounted to 9.7 µM. For the same molecule, the “Kd Fold-Change Relative to Lead” value in the experiment with transferrin [13] amounted to 8.8 fold.

B25: TRF24 (peptide)
peptide: SVKPWRPLITGNRWLNSGSC
notes: 20-mer ending GSC
Consider B25, for which the dissociation constant Kd in the experiment with transferrin [1] was approximately 50 µM. The Rank - non-prewash in the experiment with transferrin [2] is 71 rank. The Rank -- prewash with transferrin [3] worked out at 958 rank.
